In patent CN116836278A:

Legend:
[1] = biological target: Prog-Albumin偶联物(购自益缪诺，货号PROGO2); test: indirect ELISA, Prog-Albumin conjugate coated at 3 ug/ml, antibody at 125 ng/ml
[2] = biological target: Prog-Albumin偶联物(购自益缪诺，货号PROGO2); test: indirect ELISA, Prog-Albumin conjugate coated at 3 ug/ml, antibody at 250 ng/ml
[3] = biological target: Prog-Albumin偶联物(购自益缪诺，货号PROGO2); test: indirect ELISA, Prog-Albumin conjugate coated at 3 ug/ml, antibody at 62.5 ng/ml
[4] = biological target: Prog-Albumin偶联物(购自益缪诺，货号PROGO2); test: indirect ELISA, Prog-Albumin conjugate coated at 3 ug/ml, antibody at 31.25 ng/ml
[5] = biological target: Prog-Albumin偶联物(购自益缪诺，货号PROGO2); test: indirect ELISA, Prog-Albumin conjugate coated at 3 ug/ml, antibody at 15.625 ng/ml
[6] = biological target: Prog-Albumin偶联物(购自益缪诺，货号PROGO2); test: biolayer interferometry, AMC sensor, antibody immobilised at 10 ug/ml, Prog-Albumin conjugate in dilution series

Molecule	OD450 [1] [OD]	OD450 [2] [OD]	OD450 [3] [OD]	OD450 [4] [OD]	OD450 [5] [OD]	Kd [6] [nM]	koff [6] [s⁻¹]	kon [6] [M⁻¹ s⁻¹]
对照 (antibody)	1.85	2.19	0.686	0.319	0.148	9.12	0.0002	21900
Anti-Prog-5B3mut2 (antibody, part only; not given: light chain, part only) heavy: QVRLQESGPSLVKPSQTLSLTCTVSGFELTSKAVGWVRQAPGKVPEWLGSIVSGGATYYDPALKSRLTITRDTSKSQVSLSISSVSSEDTAEYWCVRASYAAGIWYFDYWGPGLLVTVSSASTTPPKVYPLTSCCGDTSSSIVTLGCLVSSYMPEPVTVTWNSGALTSGVHTFPAILQSSGLYSLSSVVTVPASTSGAQTFICNVAHPASSTKVDKRVGLSSDYSKCSKPPCVSRPSVFIFPPKPKDSLMITGTPEVTCVVVDVGQGDPEVQFSWFVDNVEVRTARTKPREEQFNSTFRVVSALPIQHDHWTGGKEFKCKVHSKGLPAPLVRTISRAKGQAREPQVYVLAPPQEELSKSTLSVTCLVTGFYPDYIAVEWQRARQPESEDKYGTTTSQLDADGSYFLYSRLRVDKSSWQRGDTYACVVMHEALHNHYTQKSISKPPGK	2.06	2.36	1.07	0.603	0.36	0.33	0.00027	819000
Anti-Prog-5B3mut1 (antibody, V domains shown) VH: QVRLQESGPSLVKPSQTLSLTCTVSGFELTSKAVGWVRQAPGKVPEWLGSIVSGGATYYDPALKSRLTITRDTSKSQVSLSISSVSSEDTAEYWCVRASYAAGIWYFDYWGPGLLVTVSS VL: QAVLTQPPSVSGSLGQRVSLTCSGSSTNIGGGSYVHWYQRLPASGLKTIIYGTSRRPSGVPDRFSGSRSGNTATLTITSLQAEDEADYYCATEDSGSYPFGSGTRLTVLG	1.92	2.22	0.94	0.566	0.32	0.168	0.00032	1.91e+06
